The text below walks through data of publication PMC10929192 (2024).

The target in this experiment is human PKM2 Ag (M2 splice isoform of pyruvate kinase), purified (human, UniProt P14618 1-531). In words: SPR. For orientation: SPR reads the build-up and loss of mass on a sensor chip optically.
Sequence of human PKM2 Ag (M2 splice isoform of pyruvate kinase), purified (P14618 whole entry, canonical isoform): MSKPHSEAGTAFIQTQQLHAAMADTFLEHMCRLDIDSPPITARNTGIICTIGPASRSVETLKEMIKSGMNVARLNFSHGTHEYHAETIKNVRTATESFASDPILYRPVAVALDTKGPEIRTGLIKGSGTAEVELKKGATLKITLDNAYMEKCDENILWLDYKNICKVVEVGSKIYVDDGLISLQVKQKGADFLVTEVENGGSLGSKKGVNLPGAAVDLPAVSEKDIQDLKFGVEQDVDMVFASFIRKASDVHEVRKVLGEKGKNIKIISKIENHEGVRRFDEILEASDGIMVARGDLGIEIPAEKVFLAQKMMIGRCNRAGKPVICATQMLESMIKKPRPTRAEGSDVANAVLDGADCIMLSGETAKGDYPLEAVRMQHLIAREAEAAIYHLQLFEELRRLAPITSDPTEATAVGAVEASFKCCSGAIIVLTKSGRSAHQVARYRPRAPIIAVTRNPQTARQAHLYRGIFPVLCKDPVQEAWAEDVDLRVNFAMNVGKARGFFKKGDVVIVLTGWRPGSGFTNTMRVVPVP

B1: human full-length H103 Ab (anti-PKM2 antibody, IgG1) (antibody, V domains shown)
VH: QVQLQESGPGLVRPSGTLSLICAVSGDSISSSIWWSWVRQSPGKGLEWIGYIYHNGNTYYNPSLESRVTISVDTSENQFSLKLSSVTAADTAVYYCARGYDSSGYYWTDDRYYFDYWGQGTLVTVSS
VL: NFMLTQPHSVSESPGKTVTISCTGSSGSIASNYVQWYQQRPGSAPTTVIYEDNQRPPGVPDRFSGSIDSSSNSASLTISALETEDEADYYCQSYDSRNIDVVFGGGTKVTVL
The term Kd denotes the free concentration of one partner at which half of the binding sites on the other are occupied at equilibrium, for simple one-to-one binding. Higher therefore signals weaker binding. As to B1, the dissociation constant (Kd) amounted to 0.228 nM.

B2: Na2S2O4-cleaved HAP103 Ab (act-HAP103) (antibody, V domains shown)
VH: B1 VH
VL: B1 VL
In the case of B2, the affinity, expressed as Kd, was 0.632 nM.
